Assay: yeast display, Sf9 membrane polyspecificity reagent, FACS + sequencing; frameworks hold sequencing errors
Procedure, shortened: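 Using colony PCR, genes from sorted yeast display clones were amplified, then sequenced on MiSeq at 2 × 250 and filtered by CDR length. The clones had been stained with 10% biotinylated, detergent-solubilized Sf9 membrane reagent for 1 hour at 4 °C and sorted by FACS into low and high (top ~1%) gates on anti-HA and streptavidin fluorescence. Polyreactivity labels come from the gate of origin.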

Row | Sequence | polyreactivity (PSR sort gate)
1 | QVQLVESGGGLVQAGGILSLSCAASGIIFYTYAMGWYRQAPGKERELVATISWDVDSTNYADSVKGRFTISRDNAKNTVYLQMNSLKPEDTAVYYCAVDYTFDSYWYWVDYYEYGYWGQGTQVTVTS | high polyreactivity
2 | QVQLVESGGGLVQAGGSLRLSCAASGRTFIVYAMGWYRQAPGKERELVAAISGRGGGNTYYADSVKGSFTISRDNAKNTVYLQMNSLKPEDTAVYYCAADTYSWYSYRDYYYWGQGTQVTVSS | low polyreactivity
3 | QVQLVESGGGLVQAGGSLRLSSAASGIIFRVYTMGWYLQAPGKERELVAKISLGGARTYYADSVKGRFTISRDNAKNTVYLQMNSLKPEDTAVYYCNARSRWTAKFDYWGQGTQVTVSS | high polyreactivity
4 | QVQLVESGGGLVQAGGSLRLSCASSGNIFDRYAMGRYRPAPGKERELVAGITWSGGSTNYADSVKGRFTISRDNAKNTVYLQMNSLKPEDTAVYYCGQANYYWGQGSQVTVSS | low polyreactivity
5 | QVQLVESGGGLVQAGGSLRLSCAASGFIITQSAMGWYRQAPGTERELVAAISGNGGRTYYADSVKGRFTISRDNAKNTVYLQMNSLKPEDTAVYYCAVTRPGRRYPFCYDYWGQGTQVTVSS | low polyreactivity
6 | QVQLVESGGGLVQAGGSLRLSCAASGSTFYRNAMGWYRQAPGKERELVAAISRGSRTYYADSVKGRFTISRDNAKNTVYLQMNSLKPEDTAVYNCAARAGARDTLHDYWGQGTQVTVSS | high polyreactivity
7 | QVQLVESGGGLVQAGGSLRLSCAASGSTFLYYAMGWYRQEPGKERELVAAINWNGGSTYYADSVKGRFTISRDNAKNTVYLQMNSLKPEDTAVYYCNAYGISPYEYYYWGQGTQVTVSS | low polyreactivity
8 | QVQLVESGGGLVQAGGSLRLSFAASGSIFYAYAMGWYRQAPGKERELVAGISGGGSTNYADSVKGRFTISRDNAKNTVYLQMNSLKPEDTAVYYCAADGWLSATYDGLPDSDSWGQGTQVTVSS | high polyreactivity
9 | QVHLQESGGGQVQAGGSLRLSCAASGSISYASGMGWYRQAPGTEREFVASIDPGAITNYADSVKGRFTISHDNAKNTVYLQMNSLKPEYTAVYYCAARVSTTDSHGYWGQGTQVTVSS | high polyreactivity
10 | QVQLEESGGGLVQAGGSLRLSCAASGSIFDSYARGWNSQAPVQERELVAAISRSGGRTYYADSVKGRFTISRDNAKNTVYLQMNSLKPEDTAVYYCNVVLGWWAPYFYTSGDYWGQGTQVTVSS | high polyreactivity
11 | QVQLVESGGGLVQAGGSLRLSCAASGRIFPPYAMGWYRQAPGKERELVAAISSSTTSTYYADSVKGRFTISRDNAKNTVYLQMNSLKPEDTADYYCAATGKGSYGYWGQGTQVTVSS | low polyreactivity
12 | QDQLVESGGGLVQAGGSLGLRCAATGSTFTYYTMGWYRQAAGKERELVAAISRTTGSTYYADSVKGRFTISRDNAKNTVYLQMNSLKPEDTAVYYCAAQSYKILLYFIGTAGDGYWGQGTQVTVSS | low polyreactivity
13 | QVQLVESGGGLVQAGGSLRISCSASGSIFTGYAMGWYRPAPGKERELVAAISNSGTSTYYADSVKGRFTISRDNANNTVYLQMNSLKPEDTAVYYCNTVGHRWLSDDDYWGQGTQVTVSS | low polyreactivity
14 | QDQLVESAGGLVQAGGSLRLSCAASGRIFVFNAMGWYIQAPGKERELVAGINRGASTYYADSVKGRFTISRDNAKNTVYFQMNSLKPEDTAVYYCAADNFWWTKLYYWGQGTQVTVSS | high polyreactivity
15 | QDQLVESGGGLFKAGGSLRLSCAASGFIFSHYAMGWYRQAPGKERELVADISRSGTSTYYADSVTGRFTISRDNAKNTVYLQMNSLKPEDTAVYYFAKEYFFRGFNYRYDYWGQVTQVTVSS | high polyreactivity
16 | QVQLVESGGGLVQAGGSLRLSCAASGRIFVPYVMGWYRQAPGKERELVAAISSSGGSTYYADSVKGRFTISRDNAKNTVYLQMNSLKQEDTAVYYCAKPYYFHEEDHWGQGSQVTVSS | low polyreactivity

Row | Sequence | polyreactivity (PSR sort gate)
17 | QDQLVESGGGLVQAGGSLRLSCAASAFTFGRNAKGWYRQATGKERELVATITWSGGSTYYADSVKGRFTISRDNAKNTVYLQMNSLKPEDTAVYYCAKQRRYWGQPSRAYEFNYWGQGTQVTVSS | high polyreactivity
18 | QVQLVESGGGLVQAGGSLRLSCAASGRTFYIYAMGWYRQAPGKERELVAAITWRGGRTYYADSVKGRFTISRDNAKNTVYLQMNSLKPEDTAVYYCAARTGQGPLYNHWGQGTQVTVSS | high polyreactivity
19 | QVQLVESSGGLVQAGGSLRLSCAASGSIFPSNAMGWYRQAPGKERELVARITGGGGNTYYADSVKGRFTISRDNAKNTVYLQMNSLKPEDTAVYYCAADYTNWKTGSNEMYYWGQGTQVTVSS | low polyreactivity
20 | QVQLVESGGGLVQAGGSLRLSCAASGYTFSRYAMGWYRQAPGKERELVADISRSGGSTDYADSVKGRFTISRDNAKNTVYLQMNSLKPEDTAVYYCAKGSWWGYYSYGFDYWGQGTQVTVSS | high polyreactivity
21 | QVQLVESGGGLVQAGGSRRLTCAGSGYIFRPYAKRWYRQAPGKERELVAVISSGGSTYYADSVKGRFTISRDNEKNTVYFQMNSLKPQDTAVYYCKRTLWSMGGTTYEYWGQGTQVTVSS | low polyreactivity
22 | QVQLVESGGGLVQAGGSLRISCAASGFIFYWNAMGWYRQAPGKERELVAGITSGGDTNYADSVKGRFTISRDNAKNTVYLQINSLKPEDTAVYYCAAEGFRGYGYWGQGTQVTVSS | low polyreactivity
23 | QVQLVESGGGLVQEGGRLRISCAATGINFSWYAMGWNRPATGKERELVASITIGGNTNFADSVKGRFTISLYNAKNSVYLQMNSLKREDTAVYYCAAQTFWYGYGGGVYWGQGTQVTVSS | low polyreactivity
24 | QVQLVESGGGLVQAGGSLRLSCAASGRIFGKYAMGWYRQAPGKERELVATISLSGVRTYYADSVKGRFTISRDNAKNTVYLQMNSLKPEDTAVYYCASCYSSNGDYWGQGTQVTVSS | low polyreactivity
25 | QVQLVESGGGLVQAGGSLRLSCAASGITFRGYVMGWYRQAPGKERELVADISRRGGSTYADSVKGRFTISRDNAKNTVYLQMNSLKPEDTAVYYCNAGWRPHNLNQVGYSSYGYYYWGQGTQVTVSS | high polyreactivity
26 | QVQLVESGGGLVQAGGSLRLSCAASGRIFASYAMGWYRQAPGKERELVASITRRGGSTYYADSVKGRFTISRDNAKNTVYLQMNSLKPPGSTYEGGYWGQGTQVTVSS | low polyreactivity
27 | QVQLVESGGGLVQAGGSLRLSCAASGSIFRFYAMGWYRQAPGKEGELVAAITSGGSTNYADSVKGRFTISRDNAKNTVYLQMNSLKPEDTAVSYCAAVVVYFFIYDYWGQGTQVTVSS | low polyreactivity
28 | QVHLVESGGGLVQAGGSLRLSCAASGIIFPWTAMGWYRQAPGKERELVAAITSRGSNTYYADSVKGRFTISRDNAKNTVYLQMNSLKPEDTAVYYCAVDSFYYGKYGYWGQGSQVTVSS | high polyreactivity
29 | QVQLVESGGGLVQAVGSLRLSCAASGRIFRVNAMGWYRQAPGKERELVASITSGGSTHYADSVKGRFTISRDNAKNTVYLQMNSLKPEDTAVYYCNVAYGLLWISPGGDYWGQGTQVTVSS | low polyreactivity
30 | QVQLVESGGGLVQAGGSLRLSCAASGFILYYYAMGWSRQAPGKERELVAAISWSGDSTYYADSVKGRFTISRDNAKNTVYLQMNSLKPEDTAVYYCAATWQLTHRYYWGQGTQVTVSS | low polyreactivity
31 | QVQLVESGGGLVQAGGSLRLSCAASGRTFRVYAIGWYRQAPGKEREFVATISVRGGSTYYADSVKGRFTISRDNAKNNVYLQMNSLKPEDTAVYFCAADSYPYVYALYDYWGQGTQVTVSS | low polyreactivity
32 | QVQLVESAGGLVQAGARLRLSCAASGFTFQYYALGWYRQAPGKERELVATISTSGGNTYYADSVKGRFTITRDNAKNTVYLQMNSLKPEDTAVYYCAARRYRASSRGYGYWGQGTQVTVSS | high polyreactivity

Reference: the nanobody polyreactivity screen of Harvey et al. (2022)
